Assay [1] concerns the target K18 fibril seeds (human) (UniProt P10636).
Assay [2] shares this target. This is another data set of the same source.
Assay [3] addresses htau40 seeds (human) (UniProt P10636).
Assay [4] deals with AD tau filaments (in AD brain homogenate) (human (endogenous in AD brain tissue)).
The target of assay [5] is Atto633-labeled 3R MAP2 monomer (UniProt P11137). Put plainly: fluorescence polarisation; fluorescence anisotropy; 100 nM Atto633-labeled monomer titrated with K18 seeds (0–20 μM monomer equivalents), equilibrated 16 h at 22 °C; one-site binding model; apparent KD, based on monomer equivalents of seeds, not seed concentrations. For orientation: In fluorescence polarisation assays a small probe gives low polarisation when free and higher when bound to something large.

The target in assay [6] is Atto633-labeled 4R MAP2 monomer (UniProt P11137). Described as above.
The target of assay [7] is Atto633-labeled K18 monomer (human) (UniProt P10636). The assay is described as above.

Some results are limits rather than exact numbers.

4R MAP2, sequence (P11137 other isoform, or with tags, fused parts or gaps): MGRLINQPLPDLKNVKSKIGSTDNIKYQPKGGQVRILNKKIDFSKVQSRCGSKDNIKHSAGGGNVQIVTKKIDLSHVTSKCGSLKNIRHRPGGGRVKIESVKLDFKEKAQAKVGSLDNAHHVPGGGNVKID
K18 fibril seeds, sequence (P10636 561-689): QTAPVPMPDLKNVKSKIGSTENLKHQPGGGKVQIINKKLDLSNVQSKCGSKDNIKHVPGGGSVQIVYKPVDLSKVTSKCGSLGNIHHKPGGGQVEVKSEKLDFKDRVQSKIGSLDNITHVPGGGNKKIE
K18 fibril seeds (human), sequence (P10636 561-689): as above
htau40 seeds (human), sequence (P10636 other isoform, or with tags, fused parts or gaps): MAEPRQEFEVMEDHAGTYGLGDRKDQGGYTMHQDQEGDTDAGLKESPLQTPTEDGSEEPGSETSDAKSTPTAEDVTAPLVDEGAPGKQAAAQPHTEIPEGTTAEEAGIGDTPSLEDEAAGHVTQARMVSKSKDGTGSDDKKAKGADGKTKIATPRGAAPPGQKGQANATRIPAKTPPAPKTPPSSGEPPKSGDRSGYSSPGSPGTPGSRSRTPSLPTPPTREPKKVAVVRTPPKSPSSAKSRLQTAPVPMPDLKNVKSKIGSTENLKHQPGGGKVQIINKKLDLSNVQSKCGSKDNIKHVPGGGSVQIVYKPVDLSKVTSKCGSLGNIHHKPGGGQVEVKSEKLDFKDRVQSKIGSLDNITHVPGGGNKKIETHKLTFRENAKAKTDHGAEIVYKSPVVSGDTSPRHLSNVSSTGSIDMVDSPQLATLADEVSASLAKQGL

In assay [1], “3R MAP2 (from UniProt P11137-4 362-490) (domain or fragment)” displayed an IC50 of inhibition of K18-seeded aggregation of 10 μM K18 monomers (10% seeds, 6 h, 37 °C; sedimentation, SDS-PAGE, Coomassie; 12.5 nM-25 μM 3R MAP2); blocks recruitment of K18 monomers onto K18 seeds of 2.2 µM. The percent of HEK293 cells expressing htau40P301S-EYFP that contain tau puncta 24 h after transduction of K18 seeds preincubated with 3R MAP2 (25% without MAP2) in assay [2] was 11 % of cells. In addition, the tau fibril growth (10 μM htau40 monomers on 1% htau40 seeds, 21 h, 37 °C; sedimentation, SDS-PAGE) with 10 μM 3R MAP2, relative to the reaction without MAP2 set to 100% (% of growth without MAP2) in assay [3] came to 56. The amplification of tau fibrils from AD brain homogenate (5 μM htau40 monomer, cycles of shaking and growth for 30 h; sedimentation, SDS-PAGE, densitometry) with 5 μM 3R MAP2 in assay [4] is over 80 % reduction.

“4R MAP2 (from UniProt P11137-4 362-490) (domain or fragment)”: the IC50 of inhibition of K18-seeded aggregation of 10 μM K18 monomers (10% seeds, 6 h, 37 °C; sedimentation, SDS-PAGE, Coomassie; 12.5 nM-15 μM 4R MAP2); blocks recruitment of K18 monomers onto K18 seeds in assay [1] turned out to be 1.1 µM. The percent of HEK293 cells expressing htau40P301S-EYFP that contain tau puncta 24 h after transduction of K18 seeds preincubated with 4R MAP2 (25% without MAP2) in assay [2] was 6.4 % of cells. The substance also registered a tau fibril growth (10 μM htau40 monomers on 1% htau40 seeds, 21 h, 37 °C; sedimentation, SDS-PAGE) with 10 μM 4R MAP2, relative to the reaction without MAP2 set to 100% (% of growth without MAP2) in assay [3] of 25. Also, the amplification of tau fibrils from AD brain homogenate (5 μM htau40 monomer, cycles of shaking and growth for 30 h; sedimentation, SDS-PAGE, densitometry) with 5 μM 4R MAP2 in assay [4] was over 80 % reduction.

For “K18 fibril seeds (from UniProt P10636-8 244-372)”, the Kd in assay [5] stood at 1.6 µM; in assay [6], 1.3 µM; in assay [7], 5.4 µM.

The values are drawn from article PMC10404690.
